Test in all cases: Octet BLI; biotinylated huDLL3-IgG1 fusion on streptavidin tips; single 50 nM trispecific, conditioned medium
(In general: BLI is a label-free optical method that tracks binding on a fibre tip over time.)

The target of test [1] is T1, anti-DLL3 trispecific protein with DLL3 binding domain 42C10.
T1 construct: trispecific, one chain
The procedure: (§1) Using the conditioned medium with known concentrations of the anti-DLL3 trispecific proteins, the relative binding affinities of the anti-DLL3 trispecific proteins toward human DLL3 protein were measured using a method where biotinylated version of human DLL3 protein were expressed as a human IgG1 fusion protein, and the binding affinity measurement was carried out in an Octet instrument with streptavidin tips.

Test [2] deals with T2, anti-DLL3 trispecific protein with DLL3 binding domain 51H04.
T2 construct: trispecific, one chain
The procedure:
as §1

Test [3] has as its target T3, anti-DLL3 trispecific protein with DLL3 binding domain 51A02.
T3 construct: trispecific, one chain
The procedure:
as §1

Test [4] has as its target T4, anti-DLL3 trispecific protein with DLL3 binding domain 51A05.
T4 construct: trispecific, one chain; also called 51A5
The procedure:
as §1

The target in test [5] is T5, anti-DLL3 trispecific protein with DLL3 binding domain 51H05.
T5 construct: trispecific, one chain; also called 51H5
The procedure: as §1

The target of test [6] is T6, anti-DLL3 trispecific protein with DLL3 binding domain 42C07.
T6 construct: trispecific, one chain
The procedure: as §1

Test [7] addresses T7, anti-DLL3 trispecific protein with DLL3 binding domain 51D03.
T7 construct: trispecific, one chain
The procedure:
as §1

In test [8] the target is T8, anti-DLL3 trispecific protein with DLL3 binding domain 42A03.
T8 construct: trispecific, one chain
The procedure: as §1

Test [9] addresses T9, anti-DLL3 trispecific protein with DLL3 binding domain 53A09.
T9 construct: trispecific, one chain
The procedure: as §1

The target of test [10] is T10, anti-DLL3 trispecific protein with DLL3 binding domain 42H08.
T10 construct: trispecific, one chain
The procedure:
as §1

Test [11] has as its target T11, anti-DLL3 trispecific protein with DLL3 binding domain 41D03.
T11 construct: trispecific, one chain
The procedure: as §1

Test [12] has as its target T12, anti-DLL3 trispecific protein with DLL3 binding domain 51C02.
T12 construct: trispecific, one chain
The procedure: as §1

The target in test [13] is T13, anti-DLL3 trispecific protein with DLL3 binding domain 53C04.
T13 construct: trispecific, one chain
The procedure: as §1

Test [14] has as its target T14, anti-DLL3 trispecific protein with DLL3 binding domain 42C11.
T14 construct: trispecific, one chain
The procedure: as §1

Test [15] addresses T15, anti-DLL3 trispecific protein with DLL3 binding domain 42D05.
T15 construct: trispecific, one chain
The procedure:
as §1

The target in test [16] is T16, anti-DLL3 trispecific protein with DLL3 binding domain 51D01.
T16 construct: trispecific, one chain
The procedure: as §1

Test [17] concerns the target T17, anti-DLL3 trispecific protein with DLL3 binding domain 41D07.
T17 construct: trispecific, one chain
The procedure:
as §1

T6 sequence (chain, as listed by the source): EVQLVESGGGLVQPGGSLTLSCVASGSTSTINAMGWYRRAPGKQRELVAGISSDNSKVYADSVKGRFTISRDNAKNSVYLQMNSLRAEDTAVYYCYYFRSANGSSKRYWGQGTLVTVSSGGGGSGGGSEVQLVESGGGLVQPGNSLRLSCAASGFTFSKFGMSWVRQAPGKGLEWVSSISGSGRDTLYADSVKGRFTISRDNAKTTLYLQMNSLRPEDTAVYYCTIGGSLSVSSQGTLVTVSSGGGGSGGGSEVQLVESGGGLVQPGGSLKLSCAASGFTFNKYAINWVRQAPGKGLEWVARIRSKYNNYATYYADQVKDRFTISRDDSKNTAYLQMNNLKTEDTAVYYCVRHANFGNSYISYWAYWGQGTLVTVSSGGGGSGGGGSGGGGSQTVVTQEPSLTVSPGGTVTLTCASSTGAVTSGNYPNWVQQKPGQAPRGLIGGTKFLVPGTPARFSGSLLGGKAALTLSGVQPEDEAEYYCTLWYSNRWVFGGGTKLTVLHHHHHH
T9 sequence (chain, as listed by the source): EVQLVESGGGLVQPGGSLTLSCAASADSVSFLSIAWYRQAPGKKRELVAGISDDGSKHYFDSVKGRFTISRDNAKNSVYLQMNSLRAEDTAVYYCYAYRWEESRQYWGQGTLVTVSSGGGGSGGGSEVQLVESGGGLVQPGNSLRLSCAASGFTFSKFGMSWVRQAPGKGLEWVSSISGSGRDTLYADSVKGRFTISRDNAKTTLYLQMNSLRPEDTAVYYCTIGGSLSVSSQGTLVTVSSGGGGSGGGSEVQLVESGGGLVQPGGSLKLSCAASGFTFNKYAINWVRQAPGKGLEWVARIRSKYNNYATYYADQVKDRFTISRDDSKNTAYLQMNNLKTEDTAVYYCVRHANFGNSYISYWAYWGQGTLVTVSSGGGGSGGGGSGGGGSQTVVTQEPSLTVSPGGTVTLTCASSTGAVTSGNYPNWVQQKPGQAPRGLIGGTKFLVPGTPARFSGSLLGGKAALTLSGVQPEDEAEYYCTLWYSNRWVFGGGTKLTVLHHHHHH
T14 sequence (chain, as listed by the source): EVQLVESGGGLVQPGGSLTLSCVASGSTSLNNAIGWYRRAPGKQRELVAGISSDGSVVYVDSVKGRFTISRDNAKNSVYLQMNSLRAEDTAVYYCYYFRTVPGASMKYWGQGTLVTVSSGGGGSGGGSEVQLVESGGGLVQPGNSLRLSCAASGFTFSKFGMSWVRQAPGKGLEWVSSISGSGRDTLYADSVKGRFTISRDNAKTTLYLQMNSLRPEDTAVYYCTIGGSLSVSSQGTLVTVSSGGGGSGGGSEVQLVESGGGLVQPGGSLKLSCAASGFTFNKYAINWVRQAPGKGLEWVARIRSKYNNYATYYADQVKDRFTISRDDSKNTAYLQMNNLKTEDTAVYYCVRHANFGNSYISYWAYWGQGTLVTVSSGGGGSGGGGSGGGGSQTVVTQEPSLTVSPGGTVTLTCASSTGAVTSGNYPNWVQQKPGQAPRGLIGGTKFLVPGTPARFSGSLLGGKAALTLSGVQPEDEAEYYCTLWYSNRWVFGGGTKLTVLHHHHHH
T5 sequence (chain, as listed by the source): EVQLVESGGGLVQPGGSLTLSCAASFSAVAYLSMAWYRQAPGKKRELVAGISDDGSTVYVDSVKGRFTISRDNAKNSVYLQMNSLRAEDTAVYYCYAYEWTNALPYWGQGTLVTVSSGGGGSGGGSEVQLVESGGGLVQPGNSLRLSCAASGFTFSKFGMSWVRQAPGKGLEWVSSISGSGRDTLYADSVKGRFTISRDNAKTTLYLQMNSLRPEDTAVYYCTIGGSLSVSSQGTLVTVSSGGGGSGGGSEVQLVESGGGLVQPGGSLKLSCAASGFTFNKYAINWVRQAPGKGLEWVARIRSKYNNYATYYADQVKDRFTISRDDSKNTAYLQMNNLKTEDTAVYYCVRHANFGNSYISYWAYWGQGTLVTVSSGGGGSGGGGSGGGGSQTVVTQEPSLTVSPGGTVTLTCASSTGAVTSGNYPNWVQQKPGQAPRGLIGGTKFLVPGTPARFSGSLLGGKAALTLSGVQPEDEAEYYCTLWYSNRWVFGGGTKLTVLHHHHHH
T13 sequence (chain, as listed by the source): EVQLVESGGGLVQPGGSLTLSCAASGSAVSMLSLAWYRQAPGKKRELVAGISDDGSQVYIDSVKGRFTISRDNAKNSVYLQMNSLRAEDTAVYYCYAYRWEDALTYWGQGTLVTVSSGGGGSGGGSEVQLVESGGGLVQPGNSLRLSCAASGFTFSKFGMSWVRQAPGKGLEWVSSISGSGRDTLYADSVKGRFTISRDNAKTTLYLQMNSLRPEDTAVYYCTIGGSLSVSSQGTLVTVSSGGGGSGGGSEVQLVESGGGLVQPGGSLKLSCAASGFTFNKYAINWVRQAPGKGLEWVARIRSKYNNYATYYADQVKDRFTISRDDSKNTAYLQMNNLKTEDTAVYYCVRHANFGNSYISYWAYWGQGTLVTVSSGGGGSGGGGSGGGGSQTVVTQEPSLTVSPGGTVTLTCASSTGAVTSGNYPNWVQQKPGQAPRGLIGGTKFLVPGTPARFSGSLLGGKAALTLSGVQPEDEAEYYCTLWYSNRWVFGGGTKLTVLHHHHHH
T7 sequence (chain, as listed by the source): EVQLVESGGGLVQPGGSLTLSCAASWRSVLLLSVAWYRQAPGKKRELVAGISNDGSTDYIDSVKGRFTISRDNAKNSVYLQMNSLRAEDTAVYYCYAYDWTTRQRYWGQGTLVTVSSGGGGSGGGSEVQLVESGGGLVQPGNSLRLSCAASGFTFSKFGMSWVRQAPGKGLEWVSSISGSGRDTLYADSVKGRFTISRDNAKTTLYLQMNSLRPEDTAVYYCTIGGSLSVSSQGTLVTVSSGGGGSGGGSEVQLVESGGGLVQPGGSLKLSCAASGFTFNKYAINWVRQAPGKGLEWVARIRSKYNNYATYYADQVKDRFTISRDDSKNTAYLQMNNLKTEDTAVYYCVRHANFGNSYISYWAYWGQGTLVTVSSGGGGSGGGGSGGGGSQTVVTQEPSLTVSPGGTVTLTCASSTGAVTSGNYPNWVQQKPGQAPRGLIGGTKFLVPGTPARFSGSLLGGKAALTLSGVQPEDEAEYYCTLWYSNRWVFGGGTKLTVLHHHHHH
T16 sequence (chain, as listed by the source): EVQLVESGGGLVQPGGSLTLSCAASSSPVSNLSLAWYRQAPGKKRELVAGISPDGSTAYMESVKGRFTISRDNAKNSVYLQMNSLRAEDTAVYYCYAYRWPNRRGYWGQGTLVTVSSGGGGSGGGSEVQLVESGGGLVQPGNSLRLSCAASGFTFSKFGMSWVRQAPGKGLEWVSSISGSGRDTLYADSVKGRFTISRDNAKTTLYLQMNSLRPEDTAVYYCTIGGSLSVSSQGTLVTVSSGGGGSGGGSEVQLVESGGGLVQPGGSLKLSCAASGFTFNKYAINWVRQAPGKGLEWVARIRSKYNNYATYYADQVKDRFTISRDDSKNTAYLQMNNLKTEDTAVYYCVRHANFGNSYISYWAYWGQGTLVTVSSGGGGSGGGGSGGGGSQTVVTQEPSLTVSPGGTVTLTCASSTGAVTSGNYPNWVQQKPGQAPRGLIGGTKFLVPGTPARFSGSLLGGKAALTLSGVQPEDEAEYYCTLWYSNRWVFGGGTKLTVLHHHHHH
T11 sequence (chain, as listed by the source): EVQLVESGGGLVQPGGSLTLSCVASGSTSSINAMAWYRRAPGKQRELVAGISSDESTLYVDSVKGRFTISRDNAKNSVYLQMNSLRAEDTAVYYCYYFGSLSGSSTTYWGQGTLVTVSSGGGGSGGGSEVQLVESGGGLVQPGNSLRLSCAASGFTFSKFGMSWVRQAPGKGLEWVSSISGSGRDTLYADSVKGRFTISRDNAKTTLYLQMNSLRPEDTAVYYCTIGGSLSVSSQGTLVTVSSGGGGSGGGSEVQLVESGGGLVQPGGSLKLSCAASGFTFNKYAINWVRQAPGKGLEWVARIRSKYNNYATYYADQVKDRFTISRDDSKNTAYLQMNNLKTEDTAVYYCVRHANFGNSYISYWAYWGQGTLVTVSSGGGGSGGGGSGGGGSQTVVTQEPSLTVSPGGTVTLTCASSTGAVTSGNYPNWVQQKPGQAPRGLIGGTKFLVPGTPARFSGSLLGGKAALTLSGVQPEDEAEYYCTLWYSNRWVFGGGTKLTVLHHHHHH
T15 sequence (chain, as listed by the source): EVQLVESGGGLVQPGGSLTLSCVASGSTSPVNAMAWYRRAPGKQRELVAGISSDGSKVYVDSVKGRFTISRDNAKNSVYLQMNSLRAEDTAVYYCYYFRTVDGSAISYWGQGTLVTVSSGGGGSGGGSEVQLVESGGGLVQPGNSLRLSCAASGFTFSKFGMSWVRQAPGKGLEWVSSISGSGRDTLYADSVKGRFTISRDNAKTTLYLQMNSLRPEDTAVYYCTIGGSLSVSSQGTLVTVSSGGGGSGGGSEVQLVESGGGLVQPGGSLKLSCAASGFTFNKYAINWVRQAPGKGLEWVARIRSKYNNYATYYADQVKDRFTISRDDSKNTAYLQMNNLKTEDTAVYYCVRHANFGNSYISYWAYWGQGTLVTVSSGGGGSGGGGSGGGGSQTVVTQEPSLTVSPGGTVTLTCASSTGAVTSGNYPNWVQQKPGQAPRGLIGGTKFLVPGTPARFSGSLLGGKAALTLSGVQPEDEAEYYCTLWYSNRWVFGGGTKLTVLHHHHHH

B1: biotinylated human DLL3 protein expressed as a human IgG1 fusion protein (Fc fusion, not shown: a dimerising Fc or GST)
chain: AGVFELQIHSFGPGPGPGAPRSPCSARLPCRLFFRVCLKPGLSEEAAESPCALGAALSARGPVYTEQPGAPAPDLPLPDGLLQVPFRDAWPGTFSFIIETWREELGDQIGGPAWSLLARVAGRRRLAAGGPWARDIQRAGAWELRFSYRARCEPPAVGTACTRLCRPRSAPSRCGPGLRPCAPLEDECEAPLVCRAGCSPEHGFCEQPGECRCLEGWTGPLCTVPVSTSSCLSPRGPSSATTGCLVPGPGPCDGNPCANGGSCSETPRSFECTCPRGFYGLRCEVSGVTCADGPCFNGGLCVGGADPDSAYICHCPPGFQGSNCEKRVDRCSLQPCRNGGLCLDLGHALRCRCRAGFAGPRCEHDLDDCAGRACANGGTCVEGGGAHRCSCALGFGGRDCRERADPCAARPCAHGGRCYAHFSGLVCACAPGYMGARCEFPVHPDGASALPAAPPGLRPGDPQRYL
modifications: biotinylated
As usually defined, the Kd is the concentration at which binding is half-saturated. Low values mean tighter binding, high ones weaker binding. As to B1, the Kd worked out at 3.2 nM in test [1]; 1 nM in test [2]; 1.2 nM in test [3]; 1.1 nM in test [4]; 0.67 nM in test [5]; 6.4 nM in test [6]. The Kd came out at 3.3 nM in [7]; 1.9 nM in [8]; 0.97 nM in [9]; 2.1 nM in test [10]; 4.8 nM in [11]; 7.5 nM in test [12]. In addition, the Kd in test [13] is 0.5 nM; in [14], 2.3 nM; in test [15], 2.7 nM; in test [16], 7.9 nM; in test [17], 34 nM.

Source of the values: patent US20240141072A1 (published 2024).
